Results taken from US20190135932A1 (Pfizer, published 2019).
Where “and” joins values, the source holds several entries; their conditions need not be identical. Equal entries are not always repeated.

T1: human OX40R on activated primary human T cells (human, UniProt P43489 29-277)
T1 sequence (looked up): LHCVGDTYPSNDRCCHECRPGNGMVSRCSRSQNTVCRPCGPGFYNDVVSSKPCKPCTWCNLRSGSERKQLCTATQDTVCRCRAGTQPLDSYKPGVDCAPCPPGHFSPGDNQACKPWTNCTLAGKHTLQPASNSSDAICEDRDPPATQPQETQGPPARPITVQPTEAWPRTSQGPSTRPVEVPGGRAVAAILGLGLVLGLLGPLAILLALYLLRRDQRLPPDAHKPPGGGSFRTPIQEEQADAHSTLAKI


Experiments:
[1] = target: T2, cynomolgus OX40R on activated cynomolgus monkey T cells / PBMCs (cynomolgus monkey); experiment: FACS saturation binding on anti-CD3 and anti-CD28 stimulated cynomolgus PBMCs, average over 14 individual monkeys
T2 construct: whole, on cells; also called monkey cells; cynomolgus PBMC's stimulated with anti-CD3 and anti-CD28
Method: OX40R-expressing cell lines (see below) or activated primary peripheral blood mononuclear cells (see below) were used to assess binding on both the human and cynomolgus OX40 receptors. Cells were harvested and washed (5×10⁵/tube) using wash buffer at RT°. The wash buffer consisted of PBS, 2% heat-inactivated fetal bovine serum (Hyclone, Logan, Utah) and 0.02% sodium azide (Sigma, St. Louis, Mo.). Next, 100 μl of various concentrations of antibody was added to the cells (starting at 30 ug/ml and using a 3-fold titration) diluted in wash buffer containing 0.005 mg/ml of cytocholasin B (Sigma, St. Louis, Mo.). The cells were gently rocked at RT° for 3 hours. Next, the cells were washed twice and resuspended in 0.5 ml/tube with cold wash buffer and 10,000 events were collected and analyzed using a Becton Dickinson FACSCalibur and CellQuest software (San Jose, Calif.).
Cynomolgus whole blood was obtained using heparinized vacutainer tubes (BD; Franklin Lakes, N.J.) and was diluted 1:4 in PBS. Diluted whole blood was mixed and 15 mls was carefully layered over an equal volume of Histopaque 1077 (Sigma, St Louis, Mo.). […] After a PBS wash, the PBMCs were counted and readjusted to 1×10⁶/ml in tissue culture medium (TCM). […]

[2] = target: T2, cynomolgus OX40R on activated …; experiment: cell-based or functional assay
CD137-Ig (R&D Systems) = target: T3, CD137-Ig (R&D Systems) (human, UniProt Q07011 24-186); experiment: ELISA on coated receptor-Ig fusion protein
T3 construct: extracellular domain; Bought; also called 4-1BB receptor (CD137)
Method: (§1) Maxisorb 96-well plates (Nunc, Roskilde, Denmark) were coated with 100 μl of human TNFα receptor family member fusion proteins at 0.25 μg/ml diluted in BupH™ Carbonate buffer, pH 9.4 (Pierce, Rockford, Ill.) and incubated overnight at 4° C. The selectivity receptor fusion proteins tested included CD40-Ig (Alexis Biochemicals, San Diego, Calif.), CD137-Ig (R&D Systems, Minneapolis, Minn.) and CD271-Ig (Alexis Biochemicals, San Diego, Calif.). Also included as the positive control with each assay was the OX40-Ig fusion protein (in-house construct, Bioexpress, 97/2117). Plates were then washed three times with wash buffer containing 0.05% Tween 20 (Sigma, St Louis, Mo.) diluted in PBS and blocked with 300 μl of 0.5% BSA (Sigma, St Louis, Mo.) in PBS (Sigma, St Louis, Mo.) for 1 hour at RT°. Next, the plates were washed and 100 μl/well of anti-human OX40 reactive antibodies were added to the plates at various concentrations and incubated for 1 hour at RT°. Plates were thoroughly washed three times and OX40R antibody binding was detected with a horse radish peroxidase labeled anti-human kappa chain antibody (Bethyl Laboratories, Montgomery, Tex.) at 25 ng/ml for 1 hour at RD°. Plates were then washed three times which was followed by the addition of 100 μl/well of 1-Step Turbo-TMB substrate (Pierce, Rockford, Ill.) for 30 minutes at RT. The reaction was stopped by adding an equal volume of 2M H₂ SO₄. Absorbance was read at 450 nm on a Molecular Devices Spectra Max 340 (Molecular Devices, Sunnyvale, Calif.).

[3] = target: T4, CD271-Ig (Alexis Biochemicals) (human, UniProt P08138 29-250); experiment: ELISA on coated receptor-Ig fusion protein
T4 construct: extracellular domain; Bought; also called nerve growth factor receptor (CD271)
Method: as §1

[4] = target: T5, CD40-Ig (Alexis Biochemicals) (human, UniProt P25942 21-193); experiment: ELISA on coated receptor-Ig fusion protein
T5 construct: extracellular domain; Bought; also called CD40 receptor
Method: as §1

[5] = target: T1, human OX40R on activated primary human …; experiment: cell-based or functional assay

T3 sequence (Q07011 whole entry, the tested form may be a part): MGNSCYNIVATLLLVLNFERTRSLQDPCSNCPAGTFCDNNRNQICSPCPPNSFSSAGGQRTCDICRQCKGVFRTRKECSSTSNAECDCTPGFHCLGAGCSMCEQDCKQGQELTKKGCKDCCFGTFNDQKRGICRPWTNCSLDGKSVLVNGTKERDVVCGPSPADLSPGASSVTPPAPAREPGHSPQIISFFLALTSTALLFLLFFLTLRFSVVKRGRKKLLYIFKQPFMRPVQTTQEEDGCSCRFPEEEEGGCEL
T4 sequence (P08138 29-250): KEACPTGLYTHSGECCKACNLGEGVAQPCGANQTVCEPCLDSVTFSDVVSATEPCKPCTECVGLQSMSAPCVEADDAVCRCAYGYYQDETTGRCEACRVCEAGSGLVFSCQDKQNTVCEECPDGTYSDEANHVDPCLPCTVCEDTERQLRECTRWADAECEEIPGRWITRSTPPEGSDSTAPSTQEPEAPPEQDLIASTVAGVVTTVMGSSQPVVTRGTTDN
T5 sequence (P25942 21-193): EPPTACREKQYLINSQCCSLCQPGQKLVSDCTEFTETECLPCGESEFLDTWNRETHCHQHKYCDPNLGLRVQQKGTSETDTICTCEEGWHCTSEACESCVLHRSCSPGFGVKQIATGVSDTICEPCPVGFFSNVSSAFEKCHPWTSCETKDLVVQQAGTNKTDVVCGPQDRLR

Row | EC50 [1] [µg/mL] | EC50 of anti-CD3 induced IL-2 production by cynomolgus T cells, donor 2325 [2] [µg/mL] | EC50 of anti-CD3 induced IL-2 production by cynomolgus T cells, donor 32081 [2] [µg/mL] | EC50 of anti-CD3 induced IL-2 production by cynomolgus T cells, donor 32750 [2] [µg/mL] | EC50 of anti-CD3 induced IL-2 production by cynomolgus T cells, donor 32842 [2] [µg/mL] | EC50 of anti-CD3 induced IL-2 production by cynomolgus T cells, donor 33062 [2] [µg/mL] | EC50 of anti-CD3 induced IL-2 production by cynomolgus T cells, donor 33080 [2] [µg/mL] | EC50 of anti-CD3 induced IL-2 production by cynomolgus T cells, donor 33081 [2] [µg/mL] | Selectivity (binding) (CD137-Ig (R&D Systems)) | Selectivity (binding) [3] | Selectivity (binding) [4] | EC50 of anti-CD3 induced IL-2 production by primary human T cells, donor four [5] [µg/mL] | EC50 of anti-CD3 induced IL-2 production by primary human T cells, donor one [5] [µg/mL] | EC50 of anti-CD3 induced IL-2 production by primary human T cells, donor three [5] [µg/mL] | EC50 of anti-CD3 induced IL-2 production by primary human T cells, donor two [5] [µg/mL] | Selectivity (Binding to CD40, CD137, CD271) (CD137-Ig (R&D Systems)) [nM] | Selectivity (Binding to CD40, CD137, CD271) [3] [nM] | Selectivity (Binding to CD40, CD137, CD271) [4] [nM] | Binder
1 | 0.354 | 0.002 | 0.007 | 0.007 | 0.011 | 0.028 | 0.031 | 0.008 | > 100 µg/mL and > 700 nM | > 100 µg/mL and > 700 nM | > 100 µg/mL and > 700 nM | – | – | – | – | – | – | – | human monoclonal antibody 11D4 (antibody, V domains shown, IgG2 heavy chain, kappa light chain; allotypes G2(n-) and Km3; Alexa Fluor 647 conjugate was used in the species cross-reactivity FACS) VH: EVQLVESGGGLVQPGGSLRLSCAASGFTFSSYSMNWVRQAPGKGLEWVSYISSSSSTIDYADSVKGRFTISRDNAKNSLYLQMNSLRDEDTAVYYCARESGWYLFDYWGQGTLVTVSS VL: DIQMTQSPSSLSASVGDRVTITCRASQGISSWLAWYQQKPEKAPKSLIYAASSLQSGVPSRFSGSGSGTDFTLTISSLQPEDFATYYCQQYNSYPPTFGGGTKVEIKR
2 | – | – | – | – | – | – | – | – | – | – | – | 0.024 | 0.024 | 0.013 | 0.135 | > 700 | > 700 | > 700 | human monoclonal antibody 18D8 (antibody, human IgG2, kappa, V domains shown) VH: EVQLVESGGGLVQPGRSLRLSCAASGFTFDDYAMHWVRQAPGKGLEWVSGISWNSGSIGYADSVKGRFTISRDNAKNSLYLQMNSLRAEDTALYYCAKDQSTADYYFYYGMDVWGQGTTVTVSS VL: EIVVTQSPATLSLSPGERATLSCRASQSVSSYLAWYQQKPGQAPRLLIYDASNRATGIPARFSGSGSGTDFTLTISSLEPEDFAVYYCQQRSNWPTFGQGTKVEIKR
